Test results taken from PMC3589453, “Structural Characterization of the Self-Association of the Death Domain of p75^NTR” (PLoS ONE, 2013).
Positions count from the first letter of the chain named. Numbers in names are those of the source.

Key:
[1] = target: p75DD-Fusion (chimera of the p75NTR death domain and a p75-interacting peptide from NRIF) (rat | not stated) (UniProt P07174); test: SEC; purified p75NTR constructs and their mutants on a Superdex 75 column; monomer and dimer peaks; some runs with beta-ME or DTNB
[2] = target: p75CTD symmetric dimer (dimer of the C416S mutant of p75CTD) (rat) (UniProt P07174); test: SPR; Biacore 3000, 25 °C; p75CTD monomer and dimer coupled onto a CM-5 chip at equal molarities; NRIF peptide flowed over; 50 mM Hepes-KOH pH 7.5, 100 mM KCl, 5% glycerol, 0.005% Tween-20
[3] = target: T1, p75CTD monomer (p75CTD C379S/C416S) (rat, UniProt P07174 334-425, C379S | C416S, biotinylated for the BLI assay); test: BLI; Octet (ForteBio); biotinylated p75CTD proteins loaded on Streptavidin High Binding FA biosensors; RIP2 CARD in solution at 5 µM, then 20, 10, 5 and 2 µM for the monomer; 50 mM Hepes-NaOH pH 7.5, 100 mM NaCl, 5% glycerol, 1 mM EDTA; details: both partners purified
T1 construct: p75NTR, rat, residues 334-425; Mutant of m3; the tag is that of the parent construct; Biotinylated for BLI, coupled onto a CM-5 chip for SPR; also called double cysteine residue mutant
T1 sequence (looked up): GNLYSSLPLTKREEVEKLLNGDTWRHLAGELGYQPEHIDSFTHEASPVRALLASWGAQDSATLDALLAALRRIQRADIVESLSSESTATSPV

[4] = target: T2, p75CTD monomer (p75CTD C379S/C416S) (rat, UniProt P07174 334-425, C379S | C416S, biotinylated for the BLI assay); test: BLI
T2 sequence: T1 sequence (looked up)

[5] = target: the molecule itself; test: SEC; purified p75NTR constructs and their mutants on a Superdex 75 column; monomer and dimer peaks; some runs with beta-ME or DTNB
[6] = target: the molecule itself; test: immunoprecipitation and non-reducing SDS-PAGE immunoblot; HA-p75NTR in transfected HEK 293T cells without ligand; lysate in 40 mM Tris pH 7.6, 150 mM NaCl, 0.5% NP-40, 10% glycerol; anti-HA immunoprecipitates boiled with or without DTT, blotted with anti-HA
[7] = target: T1, p75CTD monomer (p75CTD C379S/C416S); test: SPR; Biacore 3000, 25 °C; p75CTD monomer and dimer coupled onto a CM-5 chip at equal molarities; NRIF peptide flowed over; 50 mM Hepes-KOH pH 7.5, 100 mM KCl, 5% glycerol, 0.005% Tween-20; details: both partners purified
[8] = target: the molecule itself; test: crystal structure; p75DD modified with DTNB; sitting drop, 4 °C, 0.1 M Bis-Tris propane pH 7.0, 1.2 M sodium citrate; asymmetric dimer in the crystal lattice

## p75DD-Fusion (chimera of the p75NTR death domain and a p75-interacting peptide from NRIF) (from UniProt P07174 334-418)
[1]
  stoichiometry N: 2

## NRIF peptide (residues 552-577), chemically synthesized
[2]
  Kd: 10 µM

B1: Human RIP2 CARD domain (residues 438-524) (domain or fragment, UniProt O43353 438-524, looked up)
chain: QWIQSKREDIVNQMTEACLNQSLDALLSRDLIMKEDYELVSTKPTRTSKVRQLLDTTDIQGEEFAKVIVQKLKDNKQMGLQPYPEIL
notes: pET24a vector; also called CARD protein; source: E. coli, purified (similar to p75DD)
[3]
  fold stronger than the NRIF peptide on p75CTD (KD about 10^-5 M): ~100 fold
[4]
  Kd: 0.24 µM

B2: p75DD (rat p75NTR death domain, residues 334-418) (domain or fragment, UniProt P07174 334-418, looked up)
chain: GNLYSSLPLTKREEVEKLLNGDTWRHLAGELGYQPEHIDSFTHEACPVRALLASWGAQDSATLDALLAALRRIQRADIVESLCSE
notes: p75NTR (neurotrophin receptor p75), rat, death domain, residues 334-418; pET24a vector; Not treated with DTNB in the solution experiments (the DTNB-treated crystal form is m2); also called His6-tagged p75DD; source: E. coli BL21, purified (Ni-NTA, size-exclusion chromatography); also co-expressed in E. coli with GST-tagged NRIF loop region (521-661); not shown: His6, C-terminal, kept
[5]
  stoichiometry N: 2

B3: p75CTD C416S (domain or fragment, rat, UniProt P07174 334-425, looked up)
chain: T1 sequence (looked up) with S46C
notes: p75NTR, rat, residues 334-425; Mutant of m3, the single chain for its self-association; the isolated dimer is m12; also called C416S mutant of p75CTD
[5]
  stoichiometry N: 2

B4: full-length rat p75NTR with N-terminal HA tag (receptor, UniProt P07174 30-425, looked up)
chain: KETCSTGLYTHSGECCKACNLGEGVAQPCGANQTVCEPCLDNVTFSDVVSATEPCKPCTECLGLQSMSAPCVEADDAVCRCAYGYYQDEETGHCEACSVCEVGSGLVFSCQDKQNTVCEECPEGTYSDEANHVDPCLPCTVCEDTERQLRECTPWADAECEEIPGRWIPRSTPPEGSDSTAPSTQEPEVPPEQDLVPSTVADMVTTVMGSSQPVVTRGTTDNLIPVYCSILAAVVVGLVAYIAFKRWNSCKQNKQGANSRPVNQTPPPEGEKLHSDSGISVDSQSLHDQQTHTQTASGQALKGDGNLYSSLPLTKREEVEKLLNGDTWRHLAGELGYQPEHIDSFTHEACPVRALLASWGAQDSATLDALLAALRRIQRADIVESLCSESTATSPV
notes: p75NTR, rat, full length; pCDNA3 construct, a gift; also called wildtype; full-length p75NTR; source: HEK 293T, transiently transfected, in lysate; not shown: HA, N-terminal, kept
[6]
  stoichiometry N: 2

## MESGAGRASDNSLLTHALPVKSHQKG [NRIF peptide (residues 552-577), chemically synthesized]
[7]
  Kd: ~10 µM

B5: p75CTD (rat p75NTR residues 334-425) (domain or fragment, UniProt P07174 334-425, looked up)
chain: T1 sequence (looked up) with S46C, S83C
notes: p75NTR, rat, death domain and C-terminal tail, residues 334-425; pET24a vector; source: E. coli BL21, purified (Ni-NTA, size-exclusion chromatography)
[5]
  stoichiometry N: 2

B6: p75ICD (rat p75NTR intracellular region, residues 280-425) (domain or fragment, UniProt P07174 280-425, looked up)
chain: KQNKQGANSRPVNQTPPPEGEKLHSDSGISVDSQSLHDQQTHTQTASGQALKGDGNLYSSLPLTKREEVEKLLNGDTWRHLAGELGYQPEHIDSFTHEACPVRALLASWGAQDSATLDALLAALRRIQRADIVESLCSESTATSPV
notes: p75NTR, rat, intracellular region, residues 280-425; pET24a vector; source: E. coli BL21, purified (Ni-NTA, size-exclusion chromatography)
[5]
  stoichiometry N: 2

B7: p75DD modified with DTNB (as crystallised) (domain or fragment, rat, UniProt P07174 334-418, looked up)
chain: B2 chain
modifications: Cys379 and Cys416 modified by DTNB (MNB group)
notes: p75NTR, rat, death domain, residues 334-418 (334-417 traced in the structure); Same construct as m1 after treatment with DTNB at a 5:1 molar ratio; also called DTNB-modified p75DD; source: E. coli BL21, purified (Ni-NTA, size-exclusion chromatography), then modified with DTNB
[8]
  binding result: binds
